Tests used:
[1] = treatment of certain blood cancers; background statement; cited from earlier work
Text: RGS2 is rapidly and constitutively degraded by the ubiquitin–proteasomal system ([12], [13]). Dysfunction of this crucial system can lead to accumulation of misfolded or aged proteins, cell cycle arrest, and uncontrolled cell proliferation ([14], [15], [16], [17]), driving various pathologies, including multiple cancers and cardiovascular disease ([18], [19]). Proteasome inhibitors, such as bortezomib (Velcade) and carfilzomib, are used in the treatment of certain blood cancers ([20], [21]). However, the severe side effects associated with these drugs, including neuropathies, fatigue, and anem ...

FBXO44^FBA = target: T1, FBXO44^FBA (Homo sapiens, UniProt Q9H4M3); experiment: Peptide microarray (PEPperPRINT), FLAG-FBXO44^FBA binding; details: 2 μg/ml FBXO44^FBA overnight at 4 °C; for Mean % difference from parent peptide (FLAG immunoreactivity): Table S1, RGS2^5–16 single-residue substitution, PBS 0.005% Tween pH 7.4, anti-FLAG DyLight800 fluorescence, three independent experiments with three technical replicates each; for FBXO44^FBA binding in peptide microarray (in words): versus parent RGS2^5–16 peptide, fluorescence
T1 construct: we expressed and purified only this domain for all in vitro studies; 6xHis (N, cleaved yes); MBP (N, cleaved yes); made in house; host or cells: Escherichia coli Rosetta BL21 (λDE3)
T1 sequence (Q9H4M3 71-252 limits assumed): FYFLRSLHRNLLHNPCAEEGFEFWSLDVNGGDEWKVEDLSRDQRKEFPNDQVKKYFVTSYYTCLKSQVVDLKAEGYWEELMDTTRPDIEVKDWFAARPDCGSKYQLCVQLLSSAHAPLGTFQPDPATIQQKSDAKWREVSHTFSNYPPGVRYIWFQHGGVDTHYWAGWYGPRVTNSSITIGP
Text: To do so, we utilized a custom peptide microarray (PEPperPRINT GmbH). The design of this array was twofold: (1) substitution at each position with every other natural eukaryotic amino acid; (2) truncation of the peptide from the C terminus. We assessed the binding of FLAG-FBXO44^FBA to the array utilizing fluorescence immunoreactivity corresponding to the amount of FLAG-FBXO44^FBA bound. […] Substitutions at Asp^12 were not only tolerated but also seemed to improve binding in every case (Fig. 3B). This, combined with the fact that substituting any residue in His^11–Met^16 with Arg, and in most cases with Lys, improved FBXO44^FBA binding, indicating the presence of negative charges at the binding interface.
Figure 2 Systematic mutation of the RGS2 degron alters FBXO44^FBA binding. A custom microarray (PEPperPRINT) was designed where each position of the RGS2^5–16 peptide was substituted for each natural amino acid. We also included truncated peptides on the array. This was incubated with purified FBXO44^FBA and probed with α-FLAG. A, a representative scan of a peptide microarray (top) and a truncated peptide (bottom). B, heatmap of mean fluorescence of quantified microarray scans. The scale represents the mean fluorescence in percentage points across all replicates, normalized to the signal obtained with the original residue at each position. C, heatmap of standard deviation of quantified microarray scans. The scale represents the standard deviation in percentage points across all replicates. […] Residues are color-coded based on properties: blue, positive charge; red, negative charge; orange, uncharged polar; green, hydrophobic; yellow, Cys (C); bright green, Pro (P); and black, Gly (G). […] Results of three independent experiments with three technical replicates each. For a statistical significance summary, see Table S1. FBXO44, F-box only protein 44; RGS2, regulator of G protein signaling 2.
Figure 3 Effects of RGS2^5–16 peptide residue changes on FBXO44^FBA binding. Data are presented as % FLAG immunoreactivity, as compared with the parent peptide residue. […] The original residue is marked in each graph with a vertical dotted line. Boxes extend from the 25th to 75th percentile with a line marking the median. Whiskers extend to the minimum and maximum. Results of three independent experiments with three technical replicates each. Data were analyzed by two-way ANOVA, with Tukey's post hoc test for pairwise comparison (simple effect within columns). Statistical significance is summarized in Table S1 and color-coded according to the legend. FBXO44, F-box only protein 44; RGS2, regulator of G protein signaling 2.
The microarray slide was seated into the incubation tray according to PEPperPRINT's instructions. The array well was then incubated in washing buffer (PBS) with 0.005% Tween (Sigma; P1379, pH 7.4) at room temperature for 15 min on an orbital shaker. Washing buffer was aspirated, and the array was then incubated with Rockland blocking buffer at room temperature for 30 min on an orbital shaker. Blocking buffer was then aspirated, and the array was incubated in staining buffer (washing buffer with 10% Rockland blocking buffer) at room temperature for 15 min on an orbital shaker. Staining buffer was aspirated, and purified FBXO44 FBA domain diluted to 2 μg/ml in staining buffer was added. The array was then placed on an orbital shaker overnight at 4 °C. The FBA domain solution was removed, and an array was washed three times with washing buffer. After the third array was incubated in staining buffer for 15 min at 4 °C on an orbital shaker. The array was then incubated with antibody dilution (anti-FLAG DyLight800 and anti-HA DyLight680, both diluted 1:2000 in staining buffer) for 45 min at 4° C on an orbital shaker. The array was then washed three times with washing buffer. […]

HEK-293T cells = experiment: RGS2 protein levels, baseline and with proteasome inhibitor MG-132; assay type: cell-based, human; details: Fig. S4, five or six independent experiments; for basal RGS2 protein expression versus RGS2^WT (Fig. S4): no MG-132; for change of RGS2 protein levels with MG-132 (Fig. S4): MG-132 10 μM, 4 h
Text: Representative Western blot and quantification of three independent experiments. […] Representative Western blot and quantification of three independent experiments. Representative Western blot (D), quantification of knockdown efficiency (E), and effects on RGS protein levels (F) when FBXO44 is knocked down using siRNA. […] Result of three independent experiments. ∗p < 0.05; ∗∗p < 0.01; ∗∗∗p < 0.001 using two-way ANOVA followed by Tukey's post hoc test for pairwise comparisons (C, E, and F). FBXO44, F-box only protein 44; HEK-293T, human embryonic kidney-293T cell line; RGS2, regulator of G protein signaling 2.
Cells were harvested on ice in lysis buffer containing protease inhibitors (50 mM Tris–HCl [pH 7.4], 5 mM NaCl, 0.5 mM EDTA, 1% Triton X-100, 10% cOmplete Protease Inhibitor Cocktail EDTA-free). Lysates were bath sonicated for 10 min at 4 °C, centrifuged at 6000g for 3 min, and the supernatant was used for SDS-PAGE and immunoblotting. Total protein concentration was determined using the Pierce BCA Protein Assay Kit. Samples were diluted to 1 μg/μl in protein sample loading buffer (Li-Cor Biosciences).
Equal amounts of protein in each lane were resolved on a 12% SDS-PAGE gel for 1 h at 160 V. Samples were transferred to an Immobilon-FL PVDF membrane (Millipore) and subjected to Western immunoblot analysis using Li-Cor blocking buffer for both blocking and antibody diluents. Membranes were blocked for 1 h, then incubated for 2 h in primary antibodies as described under “Antibodies,” and finally incubated for 1 h with IRDye secondary antibodies directed at the species of the primary antibody. Following each antibody incubation, membranes were washed four times in PBS with 0.1% Tween-20. Membranes were imaged using an Azure600 imaging system (Azure Biosystems).
Figure S4. Effect of RGS2 mutations on protein stability. Representative western blot and quantification of five or six independent experiments (varies by mutation). The proteasome inhibitor MG-132 (10 μM, 4 h) […]
P15R were predicted to destabilize RGS2, due to increased binding to FBXO44 in the peptide microarray. […]
significant. *P<0.05; ***P<0.001 using two-way ANOVA followed by Tukey’s post hoc test for pairwise

Mean % difference from parent peptide (FLAG immunoreactivity) (FBXO44^FBA) [%] | Compound | also measured
184.9 | D12R: array RGS2^5–16 peptide, D12 substituted by R (MFLAVQHRCRPM) | FBXO44^FBA binding in peptide microarray (in words) (FBXO44^FBA): enhanced FBXO44^FBA binding; basal RGS2 protein expression versus RGS2^WT (Fig. S4) (HEK-293T cells): trend towards decreased expression
40.66 | D12V: array RGS2^5–16 peptide, D12 substituted by V (MFLAVQHVCRPM; UniProt P41220 5-16, looked up, variant D12V) | 
31.8 | D12Y: array RGS2^5–16 peptide, D12 substituted by Y (MFLAVQHYCRPM; UniProt P41220 5-16, looked up, variant D12Y) | 
-33.89 | M16A: array RGS2^5–16 peptide, M16 substituted by A (MFLAVQHDCRPA; UniProt P41220 5-16, looked up, variant M16A) | 
-27.06 | P15A: array RGS2^5–16 peptide, P15 substituted by A | 
26.71 | P15C: array RGS2^5–16 peptide, P15 substituted by C | 
-30.63 | P15G: array RGS2^5–16 peptide, P15 substituted by G | FBXO44^FBA binding in peptide microarray (in words) (FBXO44^FBA): decreased binding; change of RGS2 protein levels with MG-132 (Fig. S4) (HEK-293T cells): none of these mutations resulted in significant changes in basal expression or response to MG-132; basal RGS2 protein expression versus RGS2^WT (Fig. S4) (HEK-293T cells): none of these mutations resulted in significant changes in basal expression
158 | P15R: array RGS2^5–16 peptide, P15 substituted by R (MFLAVQHDCRRM) | FBXO44^FBA binding in peptide microarray (in words) (FBXO44^FBA): enhanced FBXO44^FBA binding; change of RGS2 protein levels with MG-132 (Fig. S4) (HEK-293T cells): none of these mutations resulted in significant changes in basal expression or response to MG-132; basal RGS2 protein expression versus RGS2^WT (Fig. S4) (HEK-293T cells): none of these mutations resulted in significant changes in basal expression
-27.71 | R14A: array RGS2^5–16 peptide, R14 substituted by A (MFLAVQHDCAPM) | FBXO44^FBA binding in peptide microarray (in words) (FBXO44^FBA): modest effects, with only one or two substitutions for each reaching significance
32.54 | R14W: array RGS2^5–16 peptide, R14 substituted by W (MFLAVQHDCWPM) | FBXO44^FBA binding in peptide microarray (in words) (FBXO44^FBA): modest effects, with only one or two substitutions for each reaching significance

The remaining lines, values behind:

Compound | Mean % difference from parent peptide (FLAG immunoreactivity) (FBXO44^FBA) [%] | also measured
CC(C)C[C@H](NC(=O)[C@H](Cc1ccccc1)NC(=O)c1cnccn1)B(O)O [bortezomib] |  | severe side effects [1]: neuropathies, fatigue, and anemia
CC(C)C[C@H](NC(=O)[C@H](CCc1ccccc1)NC(=O)CN1CCOCC1)C(=O)N[C@@H](Cc1ccccc1)C(=O)N[C@@H](CC(C)C)C(=O)[C@@]1(C)CO1 [carfilzomib] |  | severe side effects [1]: neuropathies, fatigue, and anemia
D12W: array RGS2^5–16 peptide, D12 substituted by W (MFLAVQHWCRPM; UniProt P41220 5-16, looked up, variant D12W) | 48.95 | 
H11R: array RGS2^5–16 peptide, H11 substituted by R (MFLAVQRDCRPM) | 41.19 | FBXO44^FBA binding in peptide microarray (in words) (FBXO44^FBA): modest effects, with only one or two substitutions for each reaching significance
M16C: array RGS2^5–16 peptide, M16 substituted by C | 30.03 | 
M16D: array RGS2^5–16 peptide, M16 substituted by D (MFLAVQHDCRPD; UniProt P41220 5-16, looked up, variant M16D) | 31.28 | 
M16G: array RGS2^5–16 peptide, M16 substituted by G (MFLAVQHDCRPG; UniProt P41220 5-16, looked up, variant M16G) | -27.86 | 
M16K: array RGS2^5–16 peptide, M16 substituted by K (MFLAVQHDCRPK; UniProt P41220 5-16, looked up, variant M16K) | 38.94 | 
M16R: array RGS2^5–16 peptide, M16 substituted by R (MFLAVQHDCRPR; UniProt P41220 5-16, looked up, variant M16R) | 101.4 | 
P15D: array RGS2^5–16 peptide, P15 substituted by D (MFLAVQHDCRDM; UniProt P41220 5-16, looked up, variant P15D) | 31.74 | 
P15K: array RGS2^5–16 peptide, P15 substituted by K (MFLAVQHDCRKM; UniProt P41220 5-16, looked up, variant P15K) | 52.32 | 
